Laboratory results taken from patent US20120316071A1 (published 2012).
One block for each binder: values may come before it.

Tests used:
[1] = target: T1, rHuman EGF R/Fc Chimera, CF (human, UniProt P00533 25-645); assay: ECL Multispot (MSD) assay; antigen spotted on plate, Fab in solution;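 also: fab bound 1 h at 20 °C, detected by TAG-labelled antibody electrochemiluminescence, signal relative to each well's blank, ratio of 4 or more marks a hit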
T1 construct: Bought from R&D Systems; also called epidermal growth factor receptor; not shown: Fc of the bought chimera

[2] = target: T2, rHuman ErbB2/Fc Chimera, CF (human, UniProt P04626 23-652); assay: as above
T2 construct: Bought from R&D Systems; also called human epidermal growth factor 2 receptor; not shown: Fc of the bought chimera

[3] = target: T3, rHuman Erythropoietin R/Fc Chimera, CF (human, UniProt P19235 25-250); assay: as above
T3 construct: Bought from R&D Systems; also called EPO R; EPO R/Fc; not shown: Fc of the bought chimera
T3 sequence (looked up): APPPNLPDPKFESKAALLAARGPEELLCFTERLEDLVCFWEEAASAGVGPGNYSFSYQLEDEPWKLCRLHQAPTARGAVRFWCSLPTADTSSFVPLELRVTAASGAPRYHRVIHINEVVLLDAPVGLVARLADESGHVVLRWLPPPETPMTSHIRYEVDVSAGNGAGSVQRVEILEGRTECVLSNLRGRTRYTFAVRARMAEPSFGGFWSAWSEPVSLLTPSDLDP

[4] = target: T4, rHuman IGF-1 sR, (IGF-1 sR), CF (human, UniProt P08069 31-932); assay: as above
T4 construct: Bought from R&D Systems; also called insulin-like growth factor-1 soluble receptor

[5] = target: T5, rHuman HGF R/c-MET/Fc Chimera, CF (human, UniProt P08581 25-932); assay: as above
T5 construct: Bought from R&D Systems; also called HGF R/Fc; hepatocyte growth factor receptor; not shown: Fc of the bought chimera
T5 sequence (P08581 25-932, change not shown): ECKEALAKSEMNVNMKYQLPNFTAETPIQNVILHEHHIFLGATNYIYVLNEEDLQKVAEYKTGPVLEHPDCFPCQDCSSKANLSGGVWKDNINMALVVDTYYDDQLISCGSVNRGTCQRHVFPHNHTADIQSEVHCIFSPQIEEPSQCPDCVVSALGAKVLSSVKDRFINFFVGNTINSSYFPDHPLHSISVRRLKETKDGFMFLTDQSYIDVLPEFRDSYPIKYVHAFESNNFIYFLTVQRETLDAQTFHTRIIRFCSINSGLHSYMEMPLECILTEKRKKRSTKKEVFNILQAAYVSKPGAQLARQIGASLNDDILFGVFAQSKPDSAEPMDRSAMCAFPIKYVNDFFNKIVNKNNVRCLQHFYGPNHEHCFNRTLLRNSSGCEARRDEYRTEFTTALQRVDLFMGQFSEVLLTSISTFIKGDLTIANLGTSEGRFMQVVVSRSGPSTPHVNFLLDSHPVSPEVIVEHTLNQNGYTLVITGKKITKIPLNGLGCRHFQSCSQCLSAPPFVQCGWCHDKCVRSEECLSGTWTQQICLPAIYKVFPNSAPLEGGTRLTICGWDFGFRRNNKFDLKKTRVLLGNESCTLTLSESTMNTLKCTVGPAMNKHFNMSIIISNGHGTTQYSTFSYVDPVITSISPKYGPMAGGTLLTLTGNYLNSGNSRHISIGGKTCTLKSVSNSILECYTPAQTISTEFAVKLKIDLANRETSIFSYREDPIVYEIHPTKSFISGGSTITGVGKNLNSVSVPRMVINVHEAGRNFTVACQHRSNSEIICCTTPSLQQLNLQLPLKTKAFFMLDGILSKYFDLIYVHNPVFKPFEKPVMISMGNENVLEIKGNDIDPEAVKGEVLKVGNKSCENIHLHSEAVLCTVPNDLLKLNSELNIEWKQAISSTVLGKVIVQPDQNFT

[6] = target: T6, rHuman Notch-1/Fc Chimera, CF (human, UniProt P46531 19-526); assay: as above
T6 construct: Bought from R&D Systems; not shown: Fc of the bought chimera

[7] = target: T7, rHuman CD44/Fc Chimera, CF (human, UniProt P16070 21-220); assay: as above
T7 construct: Bought from R&D Systems; not shown: Fc of the bought chimera

Recombinant Human DLL4 = target: T8, Recombinant Human DLL4 (human, UniProt Q9NR61 27-524); assay: as above
T8 construct: Bought from R&D Systems; also called delta-like protein 4; rHuman DLL4

[8] = target: T9, Recombinant Human DLL4 (R&D Systems Cat#1506-D4/CF) (human, UniProt Q9NR61 27-524); assay: ECL (MSD) multispot binding assay, DLL4 immobilised, Fab in solution
T9 construct: Bought protein (R&D Systems Cat#1506-D4/CF), immobilised on the MSD plate; also called delta-like protein 4; rHuman DLL4

B2: Fab VH1-46_IGHD6-6*01_IGHJ1*01 S102A/S103P/S104F/H111F (APFF) & L6_IGKJ1*01 N93H (Fab, V domains shown)
VH: QVQLVQSGAEVKKPGASVKVSCKASGYTFTSYYMHWVRQAPGQGLEWMGIINPSGGSTSYAQKFQGRVTMTRDTSTSTVYMELSSLRSEDTAVYYCAREEYAPFSAEYFQFWGQGTLVTVSS
VL: EIVLTQSPATLSLSPGERATLSCRASQSVSSYLAWYQQKPGQAPRLLIYDASNRATGIPARFSGSGSGTDFTLTISSLEPEDFAVYYCQQRSHWPPWTFGQGTKVEIKR
notes: Fab with CH1 plus His6/Flag tags and kappa CL from the expression plasmids; also called APFF & N93H
- ECL signal [8]: 14700

B4: Fab VH1-46_IGHD6-6*01_IGHJ1*01 S102A/S103P/S104F/H111F (APFF) & L6_IGKJ1*01 N93S (Fab, V domains shown)
VH: QVQLVQSGAEVKKPGASVKVSCKASGYTFTSYYMHWVRQAPGQGLEWMGIINPSGGSTSYAQKFQGRVTMTRDTSTSTVYMELSSLRSEDTAVYYCAREEYAPFSAEYFQFWGQGTLVTVSS
VL: EIVLTQSPATLSLSPGERATLSCRASQSVSSYLAWYQQKPGQAPRLLIYDASNRATGIPARFSGSGSGTDFTLTISSLEPEDFAVYYCQQRSSWPPWTFGQGTKVEIKR
notes: Fab with CH1 plus His6/Flag tags and kappa CL from the expression plasmids; also called APFF & N93S
- ECL signal [8]: 6440

B6: Fab VH1-46_IGHD6-6*01_IGHJ1*01 S102A/S103P/S104F/H111F (APFF) & L6_IGKJ1*01 N93Q (Fab, V domains shown)
VH: QVQLVQSGAEVKKPGASVKVSCKASGYTFTSYYMHWVRQAPGQGLEWMGIINPSGGSTSYAQKFQGRVTMTRDTSTSTVYMELSSLRSEDTAVYYCAREEYAPFSAEYFQFWGQGTLVTVSS
VL: EIVLTQSPATLSLSPGERATLSCRASQSVSSYLAWYQQKPGQAPRLLIYDASNRATGIPARFSGSGSGTDFTLTISSLEPEDFAVYYCQQRSQWPPWTFGQGTKVEIKR
notes: Fab with CH1 plus His6/Flag tags and kappa CL from the expression plasmids; also called APFF & N93Q
- ECL signal [8]: 704

More lines, now with the values ahead:

- ECL signal [1]: 517
- ECL signal [2]: 345
- ECL signal [3]: 437
- ECL signal [4]: 404
- ECL signal [5]: 380
- ECL signal [6]: 331
- ECL signal [7]: 420
- ECL signal (Recombinant Human DLL4): 133000
B1: Fab VH1-46_IGHD6-6*01_IGHJ1*01 S102A/S103P/S104F/H111F (APFF) & L6_IGKJ1*01 S28Q (Fab, V domains shown)
VH: QVQLVQSGAEVKKPGASVKVSCKASGYTFTSYYMHWVRQAPGQGLEWMGIINPSGGSTSYAQKFQGRVTMTRDTSTSTVYMELSSLRSEDTAVYYCAREEYAPFSAEYFQFWGQGTLVTVSS
VL: EIVLTQSPATLSLSPGERATLSCRASQQVSSYLAWYQQKPGQAPRLLIYDASNRATGIPARFSGSGSGTDFTLTISSLEPEDFAVYYCQQRSNWPPWTFGQGTKVEIKR
notes: Fab made in E. coli; the variable domains were cloned into Plasmid A (CH1, His and Flag tags) and Plasmid C (kappa CL); also called APFF / S28Q

- ECL signal [8]: 1380
B3: Fab VH1-46_IGHD6-6*01_IGHJ1*01 S102A/S103P/S104F/H111F (APFF) & L6_IGKJ1*01 N93Y (Fab, V domains shown)
VH: QVQLVQSGAEVKKPGASVKVSCKASGYTFTSYYMHWVRQAPGQGLEWMGIINPSGGSTSYAQKFQGRVTMTRDTSTSTVYMELSSLRSEDTAVYYCAREEYAPFSAEYFQFWGQGTLVTVSS
VL: EIVLTQSPATLSLSPGERATLSCRASQSVSSYLAWYQQKPGQAPRLLIYDASNRATGIPARFSGSGSGTDFTLTISSLEPEDFAVYYCQQRSYWPPWTFGQGTKVEIKR
notes: Fab with CH1 plus His6/Flag tags and kappa CL from the expression plasmids; also called APFF & N93Y

- ECL signal [8]: 817
- Signal/Blank [8]: 3.1
B5: Fab VH1-46_IGHD6-6*01_IGHJ1*01 S102A/S103P/S104F (APF) & L6_IGKJ1*01 R91Q (Fab, V domains shown)
VH: QVQLVQSGAEVKKPGASVKVSCKASGYTFTSYYMHWVRQAPGQGLEWMGIINPSGGSTSYAQKFQGRVTMTRDTSTSTVYMELSSLRSEDTAVYYCAREEYAPFSAEYFQHWGQGTLVTVSS
VL: EIVLTQSPATLSLSPGERATLSCRASQSVSSYLAWYQQKPGQAPRLLIYDASNRATGIPARFSGSGSGTDFTLTISSLEPEDFAVYYCQQQSNWPPWTFGQGTKVEIKR
notes: Fab with CH1 plus His6/Flag tags and kappa CL from the expression plasmids; also called APF & R91Q
